Experiment: soluble on expression in E. coli; label from the status in PepcDB or PDB records

Sequence	soluble on expression in E. coli
MTTYTSIANVIKERRSVRTFTDKAVEKDLLIELLNDATWAPNHKHREPWNCKLYIGEGRKKLVDAVLNSFTEEERAKRGKILSDRFLSTPAQIVVYMNEDPRQIQRDEDYAATCAFMQNFQLLAWERGLGCVWKSGGLNYNPLFIEGIGLTRGQRIVGILHIGYFDKAPEGKARTPITEKMEIIEG	soluble
MGSDKIHHHHHHMLQTLQKDAIELLKTLIKTESFSKEEHNTAEILNTFLVERGVETIREKNNVWAFNKHFDKNKPTILLNSHHDTVKPNPGYTNDPFEPIVKDGKLFGLGSNDAGGCLVSLIATFLHFYNETNLKYNFCIAATAEEEISGFDGLELVYPKLGPIDFAIVGEPTLMDIAVAEKGLMVVDCVAIGKAGHAAREEGENAIYIALKDIEWIRNYKFERVSPHLGPMKMSVTIINAGYQHNVVPEKCHFTIDVRITEEYKNEEVLKIIDDNIQSEVNPRSVRLRPSFIDPNHELVHAAIKHGAKTYGSPTTSDQALIPVPSVKMGPGNSARSHTANEFIWLIEIEEGIEKYIKVLSEIVLA	not soluble
MELKTSDVAARLGVSPKTIQRWVRKYDIPLRRNEAGHYLFDEKTVALLERVKFEQGAAMEAPPTPKRPPTPLRNNIPIDALHESIEPEIARVSSRLDQLERQLEQKADDVVSIQLLHHRQEMEEIVARLTALEQLVARLEQQLNTRPPAPHEPPEETKQKRRGLGRVMGLFA	not soluble
MEGESVKLSSQTLIQAGDDEKNQRTITVNPAHMGKAFKVMNELRSKQLLCDVMIVAEDVEIEAHRVVLAACSPYFCAMFTGDMSESKAKKIEIKDVDGQTLSKLIDYIYTAEIEVTEENVQVLLPAASLLQLMDVRQNCCDFLQSQLHPTNCLGIRAFADVHTCTDLLQQANAYAEQHFPEVMLGEEFLSLSLDQVCSLISSDKLTVSSEEKVFEAVISWINYEKETRLEHMAKLMEHVRLPLLPRDYLVQTVEEEALIKNNNTCKDFLIEAMKYHLLPLDQRLLIKNPRTKPRTPVSLPK	soluble
SMAAAAVVQIPAGATFLETFKKSFVDVPIDAEKGNAISTAEFLEAAESLTTMFDVLGSIAFSPVKTDMLGNVEKIRKRMLAAPLESQNIQDLVRNELKTKSHTATEGLLWLVRGLEFTCIALSKNIGSTEELADSFRGSYRVTLKPHHSFLVKPIFSAAMSACPYRKDFYAKLGDDEQKVQEELREYLVALDKIVNILKRFLESKEAKW	soluble
MSLTHGDVMLLATSFAPGSSNIIYQVIDELVNYFKKFLFTVNYDSELTTIADCFDLLNIPKDHPSRNLTDTFYLDKNRLLRTHCTAATLRAVKETKKSNNPDIRIASFGAVFRKDDDDATHSHQFNQLDFMWIKKDFSLTNLKWFMQNMINHIFGENTSARFRLSHFPFTEPSFEIDIRCWLCQNGCGVCKKTRWIEVLGAGILHPQVMANMGFSDTDNIRGIAAGIGIERLVMLKHGISDIRDLYDNNFKFLAQFTEGHHHHHH	not soluble
MSFPTSITDHPIVQEAVHRLDDLGDPRAGQTLTRCLNDTLARTIRPMPDGTAFVVTGDIPAMWLRDSSTQMMPYLALLKDDTALQHLLLAVLRRQFQQIAHDPYANAFNAEPSGRAHDPEDLCGDPWVWEQKYEVDSLAFPLLLAHRFWAATGRTDHVPGMLRTARTVISVWRTEQDHERLSTYRFRRENGPSSDTLPNAGRGTPVTRTGMTWSGFRPSDDACAFGYNVPANLCAAAALDGAAELAHHTHDTELAEDAARLAAELRAATARHGTVRHPDFGSIYAYEVDGNGNAVLMDDANMPGLLSLPLVANIPTTDPVYLATRGFVLSPRNPTWYRGTAAEGIGSPHTPDEHIWPIAIAVQGLTSNDTTERRWALTTLLATDAGTGQMHESFHKDDPHRFTRPWFSWANAMYAELALDTVGLGTRPLWQAGTLEHHHHHH	soluble
GAMGSEESLKHATRIIDEVVSKFLDDLGNAKSHLMSLYSACSSEVPPGPVDQKFQSIVIGCALEDQKKIKRRLETLLRNIDNSDKAIK	soluble
MGSDKIHHHHHHVAISVAGGVRPGKIIEIEHRLYQQLILGKHKASPTLLDDLDLELEADANKLDVEREAILARLMKQIKAKEVFEAVSSQLHETVNNAIEHQLASPELVLAKSEINESQILLLELLLAKNLDATRLRPLISNLSWLCRDLTNMVNSPSFRARRPQSSDVRVTDIKLVMNYIGIENLRTIIPYFCLRNWLPSANAKLLWTTRKLWRYSIVSGIAANALAQLHNTDSALVYSSALLNQLGTSVVLSLSARLFDQTWGAWIREASSSRDKEVYDAVIATEFPAKAVFEQVLSHGHKLNWQLLELLKFEASPLTGLLKELDLTLSYRELSPQAALVARANCYAKVVLLEEMRQIDPQEKRLMFDYYELTEQEVLRLKAQNYRKLDLL	not soluble
MGSDKIHHHHHHMLDPAGARVQIAKGRRDAADEPEDEDQMTRLEAFGDRKFPAAELILSSEGRGWDGIGTQVRRHPAGEIPVPVPDQMEVTLAIAGSQTGRVERRSGSAFQNTTARPGTLWFCPIGVTEDSIRITETLPMVQHVFLAKSQFDSLSELSSRSLSPASIAYLADVNDELVRQICQRIYREAQEETSSGKILIDCLAQSLVAHLVSDYSHDSRIHLGPDSGPSKLDDARLRRVLDYIYGNIDQDLSLSKLSEVACLSKHHFARAFREATGTPPYRFISERRLDHALNLLKDSRLSLAEIAYICRFSSQATFTRAFRRHVGTSPGEYRHLSRT	not soluble
MSLSEDLFDVEVRNFEEGDKVTGTVTSVEDKQVYVGIPGSKLDGVVPISELSNIHVETASDVVSVGDTLDLIVTKVEDDILVLSKRKVDAEKASDDIKAKFESGEVFEAVVSDVVKGGLVVDLGVRAFVPASLVEDHFVEDFADYKGTTLTFKVVEFEPENNRVILSHRAVVETEKASQKQALLSEIKEGDVIEGTVQRLANFGAFVDIGGVDGLVHISQISYKHIATPQEALEEGQKVTVKVIGIDPENERISLSIKATLPGPWDGIAEKAPVGSVLEGKVVRLVTFGAFVEIFPGVEGLVHISQISHEHIGTPQEVLSEGQTVEVKVLEVNEADKRLSLSIKELKDAPVEEADYELPEENTGFQMSDLIGDKLKGLQNDDKEGHHHHHH	soluble
MSDSHHKPVWDRTHHAKMATGIGDPQCFKGMAGKSKFNVGDRVRIKDLPDLFYTRTMTYTRGATGTIVRLVYESPAAEDEAFGNEENVEWFYSIVFAQKDLWPEYSDTFANDTLETEIPERYLEKA	soluble
GPGSMTTSGALFPSLVPGSRGASNKYLVEFRAGKMSLKGTTVTPDKRKGLVYIQQTDDSLIHFCWKDRTSGNVEDDLIIFPDDCEFKRVPQCPSGRVYVLKFKAGSKRLFFWMQEPKTDQDEEHCRKVNEYLNNPPMPGALGASGSSGHELSALGGEGGLQSLLGNMSHSQLMQLIGPAGLGGLGGLGALTGPGLASLLGSSGPPGSSSSSSSRSQSAAVTPSSTTSSTRATPAPSAPAAASATSPSPAPSSGNGASTAASPTQPIQLSDLQSILATMNVPAGPAGGQQVDLASVLTPEIMAPILANADVQERLLPYLPSGESLPQTADEIQNTLTSPQFQQALGMFSAALASGQLGPLMCQFGLPAEAVEAANKGDVEAFAKAMQNNAKPEQKEGDTKDKKDEEEDMSLD	soluble
MHNISAKKFLGYLKNKCLEFGVKVIEGNPAYTSIKCPNCGSRLSQLYKLADERALPSRLMYCFDCGFYADRDTVAVFNLIKRFTGLYPFSPKSNEPIAEGTVFPDEAMGLEHHHHHH	soluble
MPERLQVYKCEVCGNIVEVLNGGIGELVCCNQDMKLMSENTVDAAKEKHVPVIEKIDGGYKVKVGAVAHPMEEKHYIQWIELLADDKCYTQFLKPGQAPEAVFLIEAAKVVAREYCNIHGHWKAEN	soluble
MDLISGEADPSESRAAERPGTAPLQGLVTFNRLELNRILNLYGRMVAAGEWRDYAIDFLKDTAVFSIFRRASEVPIYRIVKDPRLARKQGAYSVIGASGQILRRGHELERVLLVIDRKLALV	not soluble
MDIQTRKSILWDAFEELKTRWGADEKFLERVEEEELTVDGLPESKVRDLIELREKYQLDELEFLFIVGTAVGLYQGQKQVKEILQRRMSALNEFVSSLVGREL	not soluble
MKPGIVKFALNVWPPFWGAGIKILHISEDFRTVKVRLKLRWWNKNANRTQYGGSIFSLTDPIYSLMLMGILREEYYVWDKEASINFIKPGQSDLFAEFEITDGMLDEIYQMTRNGEKCFPEFITHVKDKQGNVVSEVQRKLYVRKLEHHHHHH	soluble
MSWTGRLQCTAAFRNGRTVILDSYNEGALKLMRPVYLNSTYPTLYLVHVGGGYVDGDSYDMEISLEPSARLMVTTQSAAKIYKTPSTPVRQYTRFSLGEQSVLEYFPDPTIAYEHARFVQETTVYITSSSTVVYGEIITPGWSESGELFRYDWIRSKLKVYQDEALVLFDHLYLDSRQHLTSMLQLGGYTHVGSLVALSPFITKEVLERFNQFMEEMPQEVRCGFSAAAVPGFSVRILAYETSAIEAIFQRVQQFIRQQCGEKTPVCWRKY	not soluble
IAPTAQKLSKIYGVRSSIIIGQAALDSHFGSTLLASKYHNLFSIEASPGQGAVRLKSHEYKNGRWQEVTNRYLVYESWKESLYDYMAILHGNKIWDKALYTTMMTSSGYKTVARALQAAGFNSDPNYADKLIAVIEENNLTDYDK	not soluble
MTKLTIFYDGTCPLCAKEMKALRQHDHKQEINTVDIYSDAFSAYPQINPDRANTILHALDNQGNLLLGLDVTYRAWQLVGRGWLYAPLRWPLIRPVADWLYLRFAQNRYRISYWLTGTSRCNSGRCSR	not soluble
MEILSGRSSIIIDTDPINVYNQAHPPFSFPIPAKDVMSVASRPDLRNENLMVFSSIEGDLALLKSMNLPANVKIVYDNTDGSWVRYYPYAFYRSINAEELYAKIDDFVVLDIREEFELFSGFIEGSVNIPFSSIMQEPVELDKNRKYAVVCAHGNRSRVAVELLSSKGIEVYDVPGGMQKWLETGLPVSYEED	not soluble
MLTPMFCLAHISDMHLSPLPKPSFFELFGKRLTGYLNWQKKRKGQMATNTLETLIEALKKKNPDHLVISGDLVNLALDKEFEQARNWLLNQGQPQNISLTFGNHDAYVRGAFQKACTLFQPWITGDFPQKNAPPFPYIRIRKNVAIIGASSAIATPPFQASGYFGKMQAQALSQLLNEAARRNLFRVIMIHHPPFHHATSWHKKLWGIERFLEVIKHHGCELILHGHTHLPTLNIIKGKMGKIPIVGVASAAQAFGDTPPPAGFNFFSIEQFNQQWHCQLQRYSLINQNNEVACTETIDLLEHHHHHH	not soluble
MAHHHHHHMMRCSRGCRRQLRPYYNLPSKSDHGRKMTGFLTPYRHWMWKQNELWRNVHEAQFEHLRKVYKRQWLESFRVNADEYIYKYNITKAAQLAQWEYEMQAQEKKRLEAKQMTEGRQALKKKHLDLLREFHERQFFFWYERASERLQSMNLIQYIPQSRVQEHIERELDKYVAGKSEAYPLNFVGQMPLVEDREGNIVEVPEGLLTNHVSEHPESTVKPHQPHESTSVSVEEQLLRTMASAREESLEEWIDDSRALSETIDDISREEEQRDEDTRVARSMEETDNEREISRRMYIDRGKTGSKAIFRRPTLSETDGGSASIPVGGVAASPADTSAPMRRRKKGKLDKAHALQEQQDAMIARMSAKSLKDGESSISIVKRGEIATSRGRIRDKAAIPTQEVLMQKPELAAGSVPNARISFKDKVDQLYHRGKYKQKKEDDNNPNEDL	not soluble
